Source: patent US20160053014A1 (SORRENTO THERAPEUTICS, published 2016)
Changes are numbered by the printed parent chain. “And” between values parts separate entries of the source, which are not always exact repeats. Identical values can stand only once.

B1: 13G9 (antibody, V domains shown)
VH: EVQLVESGGGVVQPGRSLRLSCAASGFTFSRYGMHWVRQSPGKGLEWVAGISYDGSDKYYADSVKGRFTISRANSKNTLFLQMNSLRAEDTAVYYCARARGLDYWGQGTTVTVSS
VL: QAVLTQPASVSGSPGQSITISCTGTSSDIGSYNLVSWYQQHPGKAPKLIIYEVNKRPSGVSNRFSGSKSGNTASLTISGLQAEDEADYYCSSYRSINTVVFGGGTQLTVL
notes: tested as human IgG
B2: 12B11 (antibody, V domains shown)
VH: EVQLVESGGGLVKPGRSLRLSCTASGFPFGDYAMSWFRQAPGKGLEWVALISYDGRNNYYADSVKGRFTISRDNSKNTLYLQMNSLRAEDTAVFYCARDRMRGPGGRFYYYHAMDVWGQGTTVTVSS
VL: SYELMQPPSVSRGLRQTATLTCAGTRNDVGNEGASWLQQHQGHPPKLLSYRDTNRPSGISDRFSASRSGNTASLTISGLQPEDEADYYCSAWDSSLRAWVFGGGTKLTVL
notes: tested as human IgG; also called 14E10
B3: 52C6 (antibody, V domains shown)
VH: QVQLVESGGGLVQPGGSLRLSCAASGFTFDDYAMHWVRQAPGKGLQWVAVISHDGSAKYYADSVKGRFTISRDNAKNSLYLQMNSLRAEDTAVYYCARSRWGDNWGQGTLVTVSS
VL: SYELMQPASVSGSPGQSITISCTGTSSDVGGYNYVSWYQQHPGKAPKLMIYDVSKRPSGVSNRFSGSKSGNTASLTISGLQAEDEADYYCSSYTSSSTPYVFGTGTKLTVL
notes: tested as human IgG
B4: 15H2 (antibody, V domains shown)
VH: EVQLVESGGGVVQPGRSLRLSCAASGFTFSSYAMHWVRQAPGKGLEWVAVISYDGSKKYYADSVKGRFTISRDNSKNTLYLQMNSLRAEDTAVYYCARVGIAAAVGMDVWGQGTTVTVSS
VL: DIVMTQTPLSLPVTLGQPASISCRSSQSLVYRDGNTYLNWFQQRPGQSPRRLIYKVSNRDSGVPDRFSGSGSGTDFTLKISRVEAEDVGVYYCMQGTHWPLTFGQGTKVEI
notes: tested as human IgG; 181/182 '15H2' while the text calls the same pair '15H12'; also called 15H12
B5: 14B11 (antibody, V domains shown)
VH: QVQLVESGGGVVQPGMSLRLSCAASGFTFSSHAMHWVRQAPGKGLEWVAQIWSDGSNRYYSDSVKGRFTISRDQSKNTVSLQMNSLRAEDTAVYFCARDGQSMAPYAMDVWGQGTMVTVSS
VL: DIVMTQTPLSLPVTPGEPASISCRSSQSLLHKNGNNYLDWYLQRPGQSPQLLIYLASNRASGVPDRFSGSGSGTDFTLEISRVQPEDVGVYYCMQGLQTPTFGPGTKVEIK
notes: tested as human IgG
B6: 14F11 (antibody, V domains shown)
VH: EVQLVQSGAEVKKPGASVKVSCKASGSTFTNYYIHWVRQAPGQGLEWMGIINPSGGSIGSPQKFQGRVTMTRDTSTNTVYMELSSLRSEDTAVYYCASRSFGNDGVFDIWGQGTMVTVSS
VL: LPVLTQPRSVSGSPRQSVTISCTGTSSDVGGYNYVSWYQQHPGKAPKLMIYDVSKRPSGVPDRFSGSKSGNTASLTISGLQAEDEAHYYCKSYTTSRTWVFGGGTKLTVL
notes: tested as human IgG
B7: 52D6 (antibody, V domains shown)
VH: EVQLLESGGGLVQPGRSLRLSCAASGFNFDAYAMHWVRQAPGKGLEWVSGISWNSGYIAYADSVEGRFAISRDNSKNTVFLQMNSLRAEDTAIYYCARDRWLSYWGQGTLVTVSS
VL: QSVLTQPASVSGSPGQSITISCTGTSSDVGGYNYVSWYQQHPGKAPKLMIYDVSKRPSGVSNRFSGSKSGNTASLTVSGLQAEDEAEYYCSSYAGSNFVVFGGGTKLTVL
notes: tested as human IgG
B8: 14D9 (antibody, V domains shown)
VH: EVQLVESGGGVVQPGRSLRLSCAASGFTFSSYAMHWVRQAPGKGLEWVAVISYDGSNKYYADSVKGRFTISRDNSKNTLYLQMNSLRAEDTAVYYCARSAWLDSWGQGTLVTVSS
VL: QAGLTQPHSVSGSPGQSVTISCTGTSSDVGSYNHVSWYQQHPGKAPKLMIYDVSKRPSGVSNRFSGSKSGNTASLTISGLQAEDEADYYCSSYTSSSTYVFGTGTKVTVL
notes: tested as human IgG
B9: 11F3 (antibody, V domains shown)
VH: QVQLVESGGGVVQPGRSLRLYCAASGFIFSSYAIHWVRQAPGKGLEWVAVISYDGSKKYYADSVEGRFTISRDNSKNSLYLQMNSLRVDDTAVYYCAAHRQLGYWGQGTLVTVSS
VL: B8 VL with A2S, G3V, H8P, V10A, S31G, H34Y, Y99L, T103G, V107L
notes: tested as human IgG
B10: 16E3 (antibody, V domains shown)
VH: QVQLVESGGGVVQPGRSLRLSCAASGFTFSSNGMHWVRQAPGKGLEWVAAISYNGRNQYYADSLKGRFTISRDNSKNSLYLQMNSLRAEDTAVYYCATPAATLDYWGQGTLVTVSS
VL: B8 VL with A2S, G3V, H8A, V18I, S31G, H34Y, Q40H, S54T, K55Y, Y99L
notes: tested as human IgG
B11: 52H9 (antibody, V domains shown)
VH: QVQLVESGGGVVQPGRSLRLSCAASGFTFSSYGMHWVRQAPGKGLEWVAVISYDGSNKYYADSVKGRFTISRDNSKNTLYLQMNSLRAEDTAVYYCAKLSGPTAKFDYWGQGTLVTVSS
VL: QSVLTQPASVSGSPGQSVTISCTGTSRDVGGYNFVSWYQQHPGKAPKLMIYDVSNRPSGVSNRFTGSKSGNTASLTISGLQAEDEADYHCSSYRRGDTLVFGGGTKLTVL
notes: tested as human IgG
B12: 11D3 (antibody, V domains shown)
VH: QVQLVQSGGGVVQPGRSLRLSCAASGFTFSNFGMHWVRQAPGKGLEWVAVISYDGSNKYYADSVKGRFTISRDNSKNTLYLQMNSLRAEDTAVYYCARNTVTYHDVWGQGTTVTVSS
VL: QPVLTQPASVSGSPGQSITISCTGTSSDVGGYNYVSWYQQHPGKAPKLMINDVSNRPSGVSSRFSGSKSGNTASLTISGLQAEDEADYYCSSYTSSSTLVFGGGTKLTVL
notes: tested as human IgG
B13: 52A9 (antibody, V domains shown)
VH: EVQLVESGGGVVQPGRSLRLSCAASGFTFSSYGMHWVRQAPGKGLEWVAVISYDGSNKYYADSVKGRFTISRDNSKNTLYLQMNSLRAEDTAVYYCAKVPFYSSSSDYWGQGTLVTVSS
VL: B12 VL with P2S, L4V, Y32S, N33K, Y38F, N51Y, S62Y, S91T, S97R, L99W
notes: tested as human IgG
B14: 12C1 (antibody, V domains shown)
VH: EVQLLESGGGLVKPGGSLRLSCAASGFTFNNYAMHWVRQAPGKGLEWLTVISFYGGKQYYADSVKGRFTISRDNSRNTLYLQMNSLRADDTAVYYCARDNGRHFDYWGQGTLVTVSS
VL: B12 VL with N51Y, N55K, S62N, S91T, T94R, S96G, S97R, L99Y, G103S, L107V
notes: tested as human IgG
B15: 14C11 (antibody, V domains shown)
VH: QVQLQQSGPGLVKPSQTLSLTCAISGDTVSTNRAAWYWIRQSPSRGLEWLGRTHYRSRWLNDYAPSVKSRITINPDTSKNQFSLQLNSVTPEDTAVYYCARGAAGRAFDIWGQGTLVTVSS
VL: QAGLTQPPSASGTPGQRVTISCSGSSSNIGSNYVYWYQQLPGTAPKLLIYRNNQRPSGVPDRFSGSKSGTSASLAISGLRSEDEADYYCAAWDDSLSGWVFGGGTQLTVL
notes: tested as human IgG
B16: 52A10 (antibody, V domains shown)
VH: QVQLVQSGAEVKKPGASVKVSCKASGYTFTSYGISWVRQAPGQGLEWVGWISAYNGNTNYAQKLQGRVTMTTDTSTSTAYMELRSLRSDDTAVYYCARGSDYWGQGTLVTVSS
VL: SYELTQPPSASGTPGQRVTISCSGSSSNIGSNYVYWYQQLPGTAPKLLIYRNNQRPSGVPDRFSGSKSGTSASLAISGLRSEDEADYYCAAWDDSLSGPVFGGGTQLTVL
notes: tested as human IgG
B17: 16A8 (antibody, V domains shown)
VH: QVQLVESGGGVVQPGRSLRLSCAASGFTFSNYGMHWVRQAPGKGLEWVATISYDGSNNYYAASVKGRFTVSRDNSTLYLQMNSLRAEDTAVYYCAGAIAAAGVWGQGTLVTVSS
VL: LPVLTQPASVSGSPGQSITISCTGTSSDVGGYNYVSWYQQHPGKAPKLMIYDVSNRPSGVSDRFSGSKSGNTASLNISGLQPDDEAEYYCSSYRTKNTLVFGGGTKLTVL
notes: tested as human IgG
B18: 16B7 (antibody, V domains shown)
VH: QVQLVESGAEVKKPGASVKVSCKASGYTFTSYYVHWVRQAPGQGLEWMGIINPSGGTTSYAQKFQGRVTMTRDTSTSTVYMELSSLRSEDTAVYYCVRDRRVVAATTPSAFDVWGQGTMVTVSS
VL: QSVVTQPPSVSAAPGQRVTISCSGSTSNIGSNYVSWYHQLPGTAPKLLVYHNDKRPSGIPDRFSGSKSGTSATLGITGLQTGDEADYYCGTWDSSLSVWVFGGGTKVTVL
notes: tested as human IgG
B19: PC12 (antibody, V domains shown)
VH: B18 VH with Q1E, V5L
VL: QSVVTQPPSVSAAPGQKVTISCSGSSSNIGNNYVSWYQQLPGTAPKLLIYDNNKRPSGIPDRFSGSKSGTSATLGIVGLQTGDEADYYCATWDGSLSTFLFGPGTKLTVL
notes: tested as human IgG
B20: 52B10 (antibody, V domains shown)
VH: EVQLLESGGGLVQPGGSLRLSCAGSESTFGDSWLNWVRQAPGKGLEWVANINKDGSKKEYVESVKGRFTISRDNAKKSVYLQMNSLRVEDTAVYYCLLKGVWGQGTLVTVSS
VL: AIQLTQSPSFLSASVGDRVTITCRASQGISSYLAWYQQKPGKAPKLLIYAASTLQSGVPSRFSGSGSGTEFTLTISSLQPEDFATYYCQQLNSYPITFGPGTKVDIK
notes: tested as human IgG
B21: 14D7 (antibody, V domains shown)
VH: QVQLVQSGGGVVQPGRSLRLSCAASGFTFSSYGMHWVRQAPGKGLEWVAVISYDGSNKYYADSVKGRFTISRDNSKNTLYLQMNSLRAEDTAVYYCAKWGRRGAPDYWGQGTLVTVSS
VL: ETTLTQSPGTLSVSPGERATLSCRASQSVSSNLAWYQQKPGQAPRLLIYGASTRATGIPARFSGSGSGTDFTLTISSLEPEDFAVYYCQQRNNWPLTFGGGTKVEIK
notes: tested as human IgG

Each binder was assayed against T1, human CXCR5 (human, UniProt P32302 1-372) (assay: flow cytometry on CHO-CXCR5 cells, IgG titration).
T1 construct: whole, on cells; also called hu-CHO; CHO-CXCR5 cells
T1 sequence (looked up): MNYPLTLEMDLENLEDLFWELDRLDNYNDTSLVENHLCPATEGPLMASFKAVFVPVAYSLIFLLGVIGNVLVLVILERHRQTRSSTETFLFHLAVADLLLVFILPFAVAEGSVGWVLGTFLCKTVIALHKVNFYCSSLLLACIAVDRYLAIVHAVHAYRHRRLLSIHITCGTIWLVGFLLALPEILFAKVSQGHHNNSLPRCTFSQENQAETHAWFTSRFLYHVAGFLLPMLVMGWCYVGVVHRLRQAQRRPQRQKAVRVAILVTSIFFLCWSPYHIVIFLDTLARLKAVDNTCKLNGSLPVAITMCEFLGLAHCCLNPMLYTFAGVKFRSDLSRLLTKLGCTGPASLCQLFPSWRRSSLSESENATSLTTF
Text: This example describes a cellular binding assay to determine the EC₅₀ for anti-CXCR5 antibodies binding to human CXCR5. […] In this example, CHO-CXCR5 cells were lifted from culture flasks using non-enzymatic Cell Dissociation Buffer—PBS based (Life Technologies #13151-014). Cells were resuspended in FACS Buffer (2% Fetal Bovine Serum in PBS) at 1×10⁶ cells/ml and […] were aliquoted into the wells of a 96-well plate. Plated cells were spun down and the supernatant discarded. Cells were resuspended in 30 μl FACS Buffer serially diluted concentrations of CXCR5 IgG in triplicate. Plates were incubated for 1 hr at 4° C. and then washed 2× with FACS Buffer. Cells were resuspended in 50 μl goat anti-human IgG (γ-chain specific)-PE conjugated secondary antibody (Southern Biotech #2040-09) diluted 1:500 in FACS Buffer. Cells were further incubated for 30 min at 4° C. and then washed 1× with FACS Buffer. The cells were resuspended in a final volume of 30 μl FACS Buffer and analyzed using the Intellicyt Flow Cytometer. Median fluorescence in the FL-2H channel was determined using FlowJo software and EC₅₀ value was determined by plotting the data in GraphPad Prism and analyzing using a variable slope non-linear regression.

Point of comparison: B7, EC50 24 nM. Against it:
- B1 — 8-fold lower, 3 nM
- B4 — 3.9-fold lower, 6.1 nM
- B5 — 2.4-fold lower, 10 nM
- B6 — 6.3-fold lower, 3.8 nM
- B8 — within 1.5-fold, 22 nM
- B9 — 1.8-fold lower, 13 nM
- B10 — 10-fold higher, 250 nM
- B11 — 6-fold lower, 4 nM
- B12 — 8.9-fold lower, 2.7 nM
- B13 — within 1.5-fold, 31 nM
- B14 — 2-fold lower, 12 nM
- B15 — within 1.5-fold, 21 nM
- B17 — 10-fold lower, 2.3 nM
- B18 — 3.7-fold higher, 88 nM
- B19 — 5.7-fold lower, 4.2 nM
- B21 — 6-fold lower, 4 nM

B2 was tested, and the EC50 was 53 nM and 57 nM.
In the case of B3, the EC50 is reported as 3 nM and 2.8 nM.
B16 was tested, and the EC50 was 0.5 nM and 0.54 nM.
For B20, the EC50 was 0.5 nM and 0.46 nM.
